Entries after “also recorded” stand apart in the source; their conditions may differ.
Legend:
Hela cells [1] = assay: Cell penetration test (biotinylated peptide-avidine peroxidase complexes); format: cell-based, human; conditions: biotinylated peptides, 4 hours incubation (FIG. 3)
Experimental: We analyzed the Hela line, which is derived from a human cervical carcinoma.
0.1 M Tris buffer, pH 8 containing 0.5% NP40.
25.7 ml of 0.2 M dibasic sodium phosphate+24.3 ml of 0.1 M citric acid+50 ml distilled water; adjust to pH 5.0.
4 moles of peptides were incubated with 1 mole of avidine-peroxidase. 20 minutes at ambient temperature.
Hela cells (10^4 in […]) were seeded into 96-well plates (flat bases) with complete DMEM medium in the presence of 2.5% penicillin/ampicillin and 10% foetal calf serum. After incubating overnight at 37° C. in a CO2 oven (5%), different dilutions of complexes (biotinylated-avidine peroxidase peptides) were added. After incubating for 4 hours the supernatant was aspirated and the cells were washed 3 times with PBS, trypsinated and taken up for counting in PBS. After counting, the cells were taken up in 300 μl of lysis buffer.
50 μl of OPD buffer was incubated in a 96 well ELISA plate with 50 μl of lysis buffer or 50 μl of cell lysate (in general, different successive dilutions were carried out (to ½)). In order to reveal, 50 μl of OPD solution was added (in the dark). The reaction (about 10 min) was stopped with 100 μl of 1N HCl.
The peroxidase activity was determined by reading at 490 nm in the ELISA reader (reference filter at 620 nm) and the quantity of peroxidase in the lysates was calculated from the calibration curve then extrapolated to the same number of cells (10^3 or 10^4): Peptide molecules=(6*10^23/MW of peptide)*ng of PO*10^−9. A.4. Cell Viability Test

subunit A of PP2A = biological target: T1, subunit A of PP2A (Homo sapiens, UniProt P30153); assay: SPOT peptide membrane screened with structural subunit A of PP2A; format: binding; conditions: peptides on cellulose membrane, 4 μg/ml purified protein, antibody against protein A (FIGS. 1A, 2A)
T1 construct: made in house; host or cells: E. coli
Text: A recombinant structural subunit of PP2A was expressed in E. coli and purified using the protocol described by Cohen et al (Cohen P, Alemany S, Hemmings B A, Resink T J, Stralfors P, Tung H Y. Protein phosphatase-1 and protein phosphatase 2A from rabbit skeletal muscle. Methods Enzymol 1988 159, 390-408), or that described by Bosch et al (Bosch M, Cayla X, Van Hoof C, Hemmings B A, Ozon R, Merlevede W, Goris J. the PR55 and PR65 subunits of protein phosphatase 2A from Xenopus laevis. Molecular cloning and developmental regulation of expression. Eur J Biochem 1995, 230, 1037-45).
(§1) Binding peptides derived from CK2α proteins (encoded by T parva protozoa) or Vpr protein (encoded by the HIV-1 virus) with PP2A were identified using the “spot peptides” technique described above (Frank and Overwing, 1996, Meth Mol Biol 66, 149-169).
(§2) The method consisted of synthesizing dodecapeptides, in situ on a cellulose membrane, at defined positions wherein the series of the sequence covered the whole sequence of the protein of interest (Vpr or CK2α). The peptides of two consecutive spots on the membrane overlap with an overlapped by two amino acids.
(§3) Sixty-eight (68) dodecapeptides covering the whole sequence of the Vpr protein of HIV-1 and two hundred and five (205) dodecapeptides covering the sequence for the CK2α protein of Theileria were synthesized and covalently bound to cellulose membranes.
(§4) Each prepared membrane was first saturated for 1 hour at ambient temperature with TBS containing 5% skimmed Régilait (milk) and 3% BSA then incubated overnight in the same buffer in the presence of 4 μg/ml of purified protein (subunit A of PP2A or holoenzyme PP2A1).
(§5) The membranes were washed 5 times for 15 minutes with a conventional TBST buffer (TBS+TWEEN) used for incubation then incubated a further 1 hour at ambient temperature with a second antibody (coupled with peroxidase).

Hela cells [2] = assay: Cell viability test (MTT); format: cell-based, human; conditions: 72 h, increasing peptide concentrations (FIG. 4)
Experimental: Hela cells (10^4 for 100 μl) were seeded into 96-well plates (flat bases) with complete DMEM medium containing 2.5% penicillin/ampicillin and 10% foetal calf serum. After incubating overnight at 37° C. in a CO2 oven (5%), the cells were cultivated in the presence of different peptide concentrations. After incubating for 72 h, the medium containing the peptides was aspirated and the MTT at 0.5 mg/ml (diluted in DMEM alone) was added in an amount of 100 μl per well. Incubation was carried out in the dark at 37° C. for 30 minutes then the MTT was aspirated off and 50 μl of DMSO was added to all wells. It was necessary to wait ten minutes for complete lysis of the cells and to agitate the lysate well to homogenize dissolution of the reaction product in the wells. The plates were then read at 570 nm with a 690 nm reference filter.

holoenzyme PP2A1 = biological target: T2, holoenzyme PP2A1 (Sus scrofa, UniProt P54612); assay: SPOT peptide membrane screened with holoenzyme PP2A1; format: binding, pig; conditions: for binding to the trimeric holoenzyme PP2A1: peptides on cellulose membrane, 4 μg/ml purified protein, antibodies against proteins A, B and C (FIGS. 1B, 2B)
T2 construct: Trimeric PP2A1 protein was purified to homogeneity from pig brain; from tissue; host or cells: pig brain
Text: Trimeric PP2A1 protein was purified to homogeneity from pig brain.
as §1, §2, §3, §4, §5

T2 sequence (P54612 whole entry): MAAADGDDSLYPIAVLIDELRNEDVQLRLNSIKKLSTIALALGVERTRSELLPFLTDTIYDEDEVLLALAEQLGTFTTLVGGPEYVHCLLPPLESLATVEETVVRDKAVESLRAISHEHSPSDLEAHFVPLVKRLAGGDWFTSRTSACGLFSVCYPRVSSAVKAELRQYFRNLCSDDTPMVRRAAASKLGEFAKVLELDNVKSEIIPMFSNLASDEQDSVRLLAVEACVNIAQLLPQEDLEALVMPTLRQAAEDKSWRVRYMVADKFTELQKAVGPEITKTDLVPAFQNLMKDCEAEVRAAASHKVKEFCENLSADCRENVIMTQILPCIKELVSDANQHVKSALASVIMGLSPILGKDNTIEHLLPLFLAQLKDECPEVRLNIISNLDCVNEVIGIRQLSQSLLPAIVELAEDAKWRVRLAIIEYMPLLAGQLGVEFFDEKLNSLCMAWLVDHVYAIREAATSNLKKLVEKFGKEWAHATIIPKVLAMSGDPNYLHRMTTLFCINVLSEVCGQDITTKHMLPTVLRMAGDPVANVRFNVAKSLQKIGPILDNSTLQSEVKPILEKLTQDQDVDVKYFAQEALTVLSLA
T2 sequence (P67776 whole entry partner): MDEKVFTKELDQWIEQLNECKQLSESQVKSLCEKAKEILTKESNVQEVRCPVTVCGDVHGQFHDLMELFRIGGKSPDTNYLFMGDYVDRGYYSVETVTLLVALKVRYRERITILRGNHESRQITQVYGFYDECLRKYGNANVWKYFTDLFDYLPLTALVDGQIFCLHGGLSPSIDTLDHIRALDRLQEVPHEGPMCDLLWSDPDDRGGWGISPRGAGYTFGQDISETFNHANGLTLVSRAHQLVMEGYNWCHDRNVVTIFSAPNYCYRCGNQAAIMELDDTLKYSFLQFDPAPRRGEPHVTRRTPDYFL
T1 sequence (P30153 whole entry): as the sequence (P54612 whole entry) above, with T324S counted along it

Substance	intracellular penetration into Hela cells (Hela cells [1])	binding to the structural subunit A of PP2A (subunit A of PP2A)	also measured
(RHSRIG)3 (RHSRIGRHSRIGRHSRIG; listed as Theileria parva) [FD11]	possibility of penetrating into the Hela cell	–	–
(RQKRLI)3 (RQKRLIRQKRLIRQKRLI; listed as Theileria parva) [FD7]	possibility of penetrating into the Hela cell	–	–
RHSRIGIIQQRR (Human immunodeficiency virus) [SEQ ID No: 10]	–	binding the subunit A of PP2A	–
RKIGRGKFSEVFEG (listed as Theileria parva) [T parva CK2α site 1]	–	containing a binding site	–
RHSRIGVTRQRRARNG [FD13]	possibility of penetrating into the Hela cell	–	effect on viability of Hela cells (Hela cells [2]): absence of the biological effect
VEALIRILQQLLFIHFRI [HIV-1 Vpr site 2]	–	containing a binding site	–
RRRRRRRSRGRRRRTY (listed as Theileria parva) [FD8, peptide derived from protamine]	possibility of penetrating into the Hela cell; also recorded: penetrating peptides	–	effect on viability of Hela cells (Hela cells [2]): affects the viability of Hela cells
TVTKDKCVIKILKPVKKKKIKREIKILQNL (listed as Theileria parva) [T parva CK2α site 2]	–	containing a binding site	–
VEALIRILQQLL [SEQ ID No: 6]	–	binding the subunit A of PP2A	–
IRILQQLLFIHF (Human immunodeficiency virus) [SEQ ID No: 8]	–	binding the subunit A of PP2A	–
IGIIQQRRTRNG (Human immunodeficiency virus) [SEQ ID No: 12]	–	binding the subunit A of PP2A	–
ILQQLLFIHFRI (Human immunodeficiency virus) [SEQ ID No: 9]	–	binding the subunit A of PP2A	–
(AHSRIG)3 (AHSRIGAHSRIGAHSRIG; listed as Theileria parva) [FD12]	–	–	effect on viability of Hela cells (Hela cells [2]): affects the viability of the Hela cell
RHSRIGIIQQRRTRNG [FD14]	possibility of penetrating into the Hela cell; also recorded: penetrating peptides	containing a binding site	effect on viability of Hela cells (Hela cells [2]): clearly affects the viability of Hela cells; binding to the trimeric holoenzyme PP2A1 (holoenzyme PP2A1): containing a binding site
VKKKKIKREIKI (listed as Theileria parva) [FD6]	possibility of penetrating into the Hela cell	–	effect on viability of Hela cells (Hela cells [2]): does not affect the viability
KILRLIDWGLAEFYHP (listed as Theileria parva) [T parva CK2α site 3]	–	containing a binding site	binding to the trimeric holoenzyme PP2A1 (holoenzyme PP2A1): containing a binding site
ALIRILQQLLFI (Human immunodeficiency virus) [SEQ ID No: 7]	–	binding the subunit A of PP2A	–
SRIGIIQQRRTR (Human immunodeficiency virus) [SEQ ID No: 11]	–	binding the subunit A of PP2A	–
LIDWGLAEFYHP (listed as Theileria parva) [peptide 131]	–	–	binding PP2A (holoenzyme PP2A1; FIG. 2, subunit A or holoenzyme not given): capable of binding PP2A

— US8299213B2, “Synthetic or natural peptides binding protein phosphatase 2A, identification method and uses” (Universite Pierre et Marie Curie (Paris 6), priority 2001, dated 2012)
